Measured values reported in US20240043537A1.

How the values were obtained:
[1] = biological target: CD3 (as used for the BIACORE kinetics of Table 11) (UniProt P07766); experiment: SPR (BIACORE)
[2] = biological target: CD3 on T-cells (UniProt P07766); experiment: cell-based or functional assay
Sequence of CD3 on T-cells (P07766 23-207): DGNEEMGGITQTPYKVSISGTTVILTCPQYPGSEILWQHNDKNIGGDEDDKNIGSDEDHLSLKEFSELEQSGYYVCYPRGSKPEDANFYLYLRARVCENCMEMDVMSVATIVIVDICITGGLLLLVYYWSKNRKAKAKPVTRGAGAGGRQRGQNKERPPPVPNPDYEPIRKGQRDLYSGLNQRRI

Sequence of CD3 (as used for the BIACORE kinetics of Table 11) (P07766 23-126): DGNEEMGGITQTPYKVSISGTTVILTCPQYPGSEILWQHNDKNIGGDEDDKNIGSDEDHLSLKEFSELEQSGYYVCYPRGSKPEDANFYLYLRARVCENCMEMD

- Kd [1]: 0.0192 µM
- R (KD ratio to DART-A-WT) [1]: 2.4
- R (ka ratio to DART-A-WT) [1]: 2.8
- R (kd ratio to DART-A-WT) [1]: 6.5
- koff [1]: 0.0267 s⁻¹
- kon [1]: 1.39e+06 M⁻¹ s⁻¹
- EC50 of cytolysis at 18 hours (CTL assay, Pan-T-cells and MOLM-13, E:T = 5:1) [2]: 0.223 ng/mL
- EC50 of cytolysis at 42 hours (CTL assay, Pan-T-cells and MOLM-13, E:T = 5:1) [2]: 0.016 ng/mL
- R: ratio of 18 hour EC50 to DART-A-WT (CTL assay, Pan-T-cells and MOLM-13, E:T = 5:1) [2]: 2.8
- R: ratio of 42 hour EC50 to DART-A-WT (CTL assay, Pan-T-cells and MOLM-13, E:T = 5:1) [2]: 5.8
B1: DART-A-M11 (bispecific antibody)
chain 1: DFVMTQSPDSLAVSLGERVTMSCKSSQSLLNSGNQKNYLTWYQQKPGQPPKLLIYWASTRESGVPDRFSGSGSGTDFTLTISSLQAEDVAVYYCQNDYSYPYTFGQGTKLEIKGGGSGGGGEVQLVESGGGLVQPGGSLRLSCAASGFTFSTYAMNWVRQAPGKGLEWVGRIRSKYNNYATYYADSVKDRFTISRDDSKNSLYLQMNSLKTEDTAVYYCVRHGNFGNSYVSFFAYWGQGTLVTVSSGGCGGGKVAALKEKVAALKEKVAALKEKVAALKE
chain 2: QAVVTQEPSLTVSPGGTVTLTCRSSTGAVTTSNYANWVQQKPGQAPRGLIGGTNKRAPWTPARFSGSLLGGKAALTITGAQAEDEADYYCALWYSNLWVFGGGTKLTVLGGGGSGGGGEVQLVQSGAELKKPGASVKVSCKASGYTFTDYYMKWVRQAPGQGLEWIGDIIPSNGATFYNQKFKGRVTITVDKSTSTAYMELSSLRSEDTAVYYCARSHLLRASWFAYWGQGTLVTVSSGGCGGGEVAALEKEVAALEKEVAALEKEVAALEK
- max % CytoTox at 18 hours (CTL assay, Pan-T-cells and MOLM-13, E:T = 5:1) [2]: 48.5%
- max % CytoTox at 42 hours (CTL assay, Pan-T-cells and MOLM-13, E:T = 5:1) [2]: 32.4%
